Test results from US20050282743A1, “Molecular interactions in cells” (Arbor Vita Corporation, priority 2001, published 2005).
Each block holds one compound with its values, some of them ahead of it. Ends that are not written are not given here. Peptide text beside a SMILES is read from it. * marks the point of attachment. Biotin = O=C1N[C@H]2[C@H](CS[C@H]2CCCCC(=O)*)N1

Legend:
Type in all cases: binding
[1] = molecular target: T1, PDZ protein (GST-PDZ fusion) (Homo sapiens, UniProt Q9ULJ8); experiment: G' assay (10 uM PL peptide), results of TABLE 7 and TABLE 12; settings: PDZ KIAA1222, PDZ Domain 1
T1 construct: made in house; host or cells: E. coli (DH5alpha, BL21 or JM109)
Summary of the method: (§1)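 Biotin-PL peptide (N-term label), 10 uM vs GST-PDZ; protein 5 ug/ml by default. A450 nm binned: 1 = 0-1, 2 = 1-2, 3 = 2-3, 4 = 3-4, 5 = >4 on >2 repeats, 0 = no binding.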

[2] = molecular target: T2, TIP1 (PDZ Domain 1) (Homo sapiens, UniProt O14907); experiment: G' assay and Kd titration, TABLE 12; settings: A450 nm class of biotinylated PL peptide bound; 0 in conc columns = peptide 10 uM, protein 5 ug/ml
T2 construct: made in house; host or cells: E. coli (DH5alpha, BL21 or JM109)
Description: The third column labeled “Peptide Optimal Concentration” in the tables is a number reflective of the binding interaction between the PL protein and PDZ protein. […] The column labeled “Protein Optimal Concentration” refers to the protein concentration used to assay PL interaction (in ug/ml); a ‘0’ is indicative of 5 ug/ml protein concentration; any other value represents the concentration (in ug/ml) used to determine the dissociation constant for a given interaction.
Finally, the seventh column labeled “Classification” is another measure of the level of binding. In particular, it provides an absorbance value at 450 nm which indicates the amount of PL peptide bound to the PDZ protein. […]
For convenience, the assay conditions described in this section are referred to as the “G′ assay” and the “G″ assay,” with the specific conditions described in the preceding section on G assays being referred to as the “G^0 assay.” The “G′ assay” is identical to the “G^0 assay” except at step (2) the peptide concentration is 10 uM instead of 20 uM. […] Correspondingly, it slightly increases the certainty that detected interactions are of sufficient affinity and half-life to be of biological importance and useful therapeutic targets.

[3] = molecular target: T3, PDZ protein (GST-PDZ fusion) (Homo sapiens, UniProt O00560); experiment: G' assay (10 uM PL peptide), results of TABLE 7 and TABLE 12; settings: PDZ hSyntenin, PDZ Domain 1
T3 construct: made in house; host or cells: E. coli (DH5alpha, BL21 or JM109)
T3 sequence (O00560 1-298): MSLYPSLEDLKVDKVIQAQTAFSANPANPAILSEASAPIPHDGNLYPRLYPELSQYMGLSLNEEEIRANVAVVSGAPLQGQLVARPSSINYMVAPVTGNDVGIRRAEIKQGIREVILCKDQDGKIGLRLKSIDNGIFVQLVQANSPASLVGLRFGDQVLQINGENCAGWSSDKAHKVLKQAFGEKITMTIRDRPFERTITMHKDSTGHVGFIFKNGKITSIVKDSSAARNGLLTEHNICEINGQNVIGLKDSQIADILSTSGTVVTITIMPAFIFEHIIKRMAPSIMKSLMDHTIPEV
Summary of the method: as §1

[4] = molecular target: T4, PDZ protein (GST-PDZ fusion) (Homo sapiens, UniProt O95049); experiment: as above
T4 construct: made in house; host or cells: E. coli (DH5alpha, BL21 or JM109)
T4 sequence (O95049 1-919): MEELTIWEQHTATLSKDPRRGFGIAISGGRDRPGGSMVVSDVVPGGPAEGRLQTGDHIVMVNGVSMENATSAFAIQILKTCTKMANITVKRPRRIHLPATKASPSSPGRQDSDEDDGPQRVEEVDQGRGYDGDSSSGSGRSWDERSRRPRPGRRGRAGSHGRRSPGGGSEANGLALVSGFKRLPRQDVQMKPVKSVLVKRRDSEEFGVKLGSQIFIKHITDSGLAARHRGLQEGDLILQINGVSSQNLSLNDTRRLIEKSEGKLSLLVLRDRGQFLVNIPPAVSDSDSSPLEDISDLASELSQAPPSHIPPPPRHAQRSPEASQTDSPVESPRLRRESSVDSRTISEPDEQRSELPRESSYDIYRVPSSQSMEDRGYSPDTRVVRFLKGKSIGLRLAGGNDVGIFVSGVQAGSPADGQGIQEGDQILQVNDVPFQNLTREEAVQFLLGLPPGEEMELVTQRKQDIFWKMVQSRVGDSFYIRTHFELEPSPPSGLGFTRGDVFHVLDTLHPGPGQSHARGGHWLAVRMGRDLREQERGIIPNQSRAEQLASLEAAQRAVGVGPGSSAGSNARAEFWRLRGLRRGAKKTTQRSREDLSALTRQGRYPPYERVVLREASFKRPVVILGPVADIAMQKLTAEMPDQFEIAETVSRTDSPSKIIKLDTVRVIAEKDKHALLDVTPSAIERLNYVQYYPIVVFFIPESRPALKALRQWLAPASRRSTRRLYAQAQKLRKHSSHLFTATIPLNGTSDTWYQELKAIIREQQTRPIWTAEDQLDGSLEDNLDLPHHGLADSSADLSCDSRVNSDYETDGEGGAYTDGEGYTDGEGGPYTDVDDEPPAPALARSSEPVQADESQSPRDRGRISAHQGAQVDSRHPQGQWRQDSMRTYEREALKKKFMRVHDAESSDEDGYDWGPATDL
Summary of the method: as §1

T1 sequence (Q9ULJ8 whole entry, the tested form may be a part): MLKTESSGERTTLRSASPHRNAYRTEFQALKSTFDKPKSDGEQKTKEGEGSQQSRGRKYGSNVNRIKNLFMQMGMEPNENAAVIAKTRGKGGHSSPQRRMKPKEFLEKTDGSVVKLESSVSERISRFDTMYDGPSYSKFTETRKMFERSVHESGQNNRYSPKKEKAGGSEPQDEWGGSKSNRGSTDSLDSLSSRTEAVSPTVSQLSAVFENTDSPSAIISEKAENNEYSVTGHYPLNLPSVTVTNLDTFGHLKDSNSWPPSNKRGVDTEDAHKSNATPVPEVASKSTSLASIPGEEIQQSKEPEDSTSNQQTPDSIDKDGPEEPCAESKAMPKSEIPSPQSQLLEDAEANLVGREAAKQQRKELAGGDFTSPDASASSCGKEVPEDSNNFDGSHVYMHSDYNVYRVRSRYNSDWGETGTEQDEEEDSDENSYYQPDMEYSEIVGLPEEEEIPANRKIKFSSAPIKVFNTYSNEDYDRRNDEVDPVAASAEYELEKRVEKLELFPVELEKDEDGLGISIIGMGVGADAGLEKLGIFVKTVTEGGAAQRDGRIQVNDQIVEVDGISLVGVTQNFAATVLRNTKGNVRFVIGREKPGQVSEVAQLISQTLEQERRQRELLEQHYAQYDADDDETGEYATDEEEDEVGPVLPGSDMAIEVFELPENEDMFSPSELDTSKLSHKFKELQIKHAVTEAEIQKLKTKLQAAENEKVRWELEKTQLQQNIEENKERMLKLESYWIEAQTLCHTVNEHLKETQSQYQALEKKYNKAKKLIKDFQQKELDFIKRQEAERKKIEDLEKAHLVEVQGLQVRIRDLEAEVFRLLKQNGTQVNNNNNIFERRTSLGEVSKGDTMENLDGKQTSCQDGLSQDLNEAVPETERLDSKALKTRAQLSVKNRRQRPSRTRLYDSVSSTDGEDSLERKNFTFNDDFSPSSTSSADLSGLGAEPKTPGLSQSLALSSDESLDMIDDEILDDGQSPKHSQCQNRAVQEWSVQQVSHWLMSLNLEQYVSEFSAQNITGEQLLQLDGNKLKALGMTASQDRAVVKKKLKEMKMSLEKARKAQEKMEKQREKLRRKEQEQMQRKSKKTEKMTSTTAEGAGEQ
T2 sequence (O14907 14-116): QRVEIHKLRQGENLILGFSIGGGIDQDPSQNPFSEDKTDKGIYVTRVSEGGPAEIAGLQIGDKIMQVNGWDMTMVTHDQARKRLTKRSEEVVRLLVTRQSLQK

Compound: CC[C@H](C)[C@H](NC(=O)[C@H](CCCCN)NC(=O)[C@@H](NC(=O)[C@H](CO)NC(=O)[C@@H]1CCCN1C(=O)[C@H](Cc1ccccc1)NC(=O)[C@@H](NC(=O)[C@@H](NC(=O)[C@H](CCCNC(=N)N)NC(=O)[C@H](CCC(=O)O)NC(=O)[C@H](CC(C)C)NC(=O)[C@H](CC(C)C)NC(=O)[C@H](CC(C)C)NC(=O)[C@@H](NC(=O)CNC(=O)[C@@H](NC(=O)CCCC[C@@H]1SC[C@@H]2NC(=O)N[C@@H]21)C(C)C)[C@@H](C)O)C(C)C)[C@@H](C)CC)C(C)C)C(=O)N[C@@H](C)C(=O)N[C@H](C(=O)N[C@@H](CC(C)C)C(=O)N[C@H](C(=O)O)C(C)C)[C@@H](C)O [Adenovirus E4 Type9]
Classification ([1]; PL peptide 10 uM): 1 (A450 nm 0-1)

Compound: CC(C)C[C@H](NC(=O)[C@H](C)NC(=O)[C@@H](NC(=O)[C@@H](NC(=O)[C@H](Cc1c[nH]cn1)NC(=O)[C@H](CC(C)C)NC(=O)CNC(=O)[C@H](CCC(N)=O)NC(=O)CNC(=O)CNC(=O)[C@H](C)NC(=O)[C@H](C)NC(=O)[C@H](CCCNC(=N)N)NC(=O)[C@H](C)NC(=O)[C@H](CO)NC(=O)[C@H](CC(=O)O)NC(=O)[C@H](CC(=O)O)NC(=O)[C@H](Cc1c[nH]c2ccccc12)NC(=O)[C@H](C)NC(=O)CCCC[C@@H]1SC[C@@H]2NC(=O)N[C@@H]21)C(C)C)[C@@H](C)O)C(=O)O [LPAP] (Biotin-AWDDSARAAGGQGLHVTAL-OH; C-terminus assumed)
Classification [2]: 5 (A450 nm of 4 more than 2× repeated)

Compound: CC[C@H](C)[C@H](NC(=O)[C@H](CCC(N)=O)NC(=O)CCCC[C@@H]1SC[C@@H]2NC(=O)N[C@@H]21)C(=O)N[C@@H](CO)C(=O)N1CCC[C@H]1C(=O)NCC(=O)NCC(=O)N[C@@H](CC(C)C)C(=O)N[C@@H](CCC(=O)O)C(=O)N1CCC[C@H]1C(=O)N1CCC[C@H]1C(=O)N[C@@H](CO)C(=O)N[C@@H](CCC(=O)O)C(=O)N[C@@H](CCCCN)C(=O)N[C@@H](Cc1c[nH]cn1)C(=O)N[C@@H](Cc1ccccc1)C(=O)N[C@@H](CCCNC(=N)N)C(=O)N[C@@H](CCC(=O)O)C(=O)N[C@H](C(=O)N[C@@H](CCC(=O)O)C(=O)N[C@H](C(=O)O)C(C)C)[C@@H](C)O [Tax]
Classification [2]: 5 (A450 nm of 4 more than 2× repeated)

Compound: A2AA_HUMAN (modified) (Biotin-HDFRRAFKKILARGDRKRIV; not fully specified)
Classification ([4]; PDZ ZO-3, PDZ Domain 2): 3 (A450 nm 2-3)

Compound: ELLQFCRTPNPALKNGQYWV (Biotin-ELLQFCRTPNPALKNGQYWV)
Classification [3]: 2 (A450 nm 1-2) | Classification ([4]; PDZ ZO-3, PDZ Domain 1): 2 (A450 nm 1-2) | Classification ([4]; PDZ ZO-3, PDZ Domain 3): 5 (A450 nm of 4 more than 2× repeated)

Further lines, results first:

Classification [3]: 3 (A450 nm 2-3) | Classification ([4]; PDZ ZO-3, PDZ Domain 1): 2 (A450 nm 1-2) | Classification ([4]; PDZ ZO-3, PDZ Domain 3): 1 (A450 nm 0-1) | Classification [1]: 1 (A450 nm 0-1)
Compound: CC[C@H](C)[C@H](NC(=O)[C@H](Cc1ccc(O)cc1)NC(=O)[C@@H](NC(=O)[C@@H]1CCCN1C(=O)[C@H](CCC(N)=O)NC(=O)[C@H](CCC(=O)O)NC(=O)[C@H](CCC(N)=O)NC(=O)[C@H](C)NC(=O)[C@@H](NC(=O)[C@H](CC(C)C)NC(=O)[C@H](CC(C)C)NC(=O)[C@H](CCCNC(=N)N)NC(=O)[C@H](Cc1ccc(O)cc1)NC(=O)[C@H](CCSC)NC(=O)[C@H](C)NC(=O)[C@H](C)NC(=O)[C@@H]1CCCN1C(=O)[C@H](CCSC)NC(=O)[C@@H](NC(=O)[C@H](CCCCN)NC(=O)CCCC[C@@H]1SC[C@@H]2NC(=O)N[C@@H]21)[C@@H](C)O)[C@@H](C)O)C(C)C)C(=O)O [MINT-1] (Biotin-KTMPAAMYRLLTAQEQPVYI-OH; C-terminus assumed)

Classification [3]: 2 (A450 nm 1-2) | Classification ([4]; PDZ ZO-3, PDZ Domain 3): 1 (A450 nm 0-1) | Classification [1]: 1 (A450 nm 0-1)
Compound: KTMPAAMFRLLTGQETPLYI (Biotin-KTMPAAMFRLLTGQETPLYI) [MINT-2]

Classification ([4]; PDZ ZO-3, PDZ Domain 3): 3 (A450 nm 2-3)
Compound: PYSELNYETSHYPASPDSWV (Biotin-PYSELNYETSHYPASPDSWV) [catenin - delta 2]
